# In patent publication US20230257458A1 (SUNSHINE LAKE PHARMA, published 2023):
# T1: IL-11 protein (UniProt P20809 22-199, limits assumed)
# T1 construct: also called IL-11 antigen
# T1 sequence (looked up): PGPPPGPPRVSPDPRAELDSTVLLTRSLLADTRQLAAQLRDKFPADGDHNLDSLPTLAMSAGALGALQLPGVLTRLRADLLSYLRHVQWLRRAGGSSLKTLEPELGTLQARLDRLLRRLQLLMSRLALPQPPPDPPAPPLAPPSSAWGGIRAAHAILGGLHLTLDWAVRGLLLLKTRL
# T2: IL-11-Fc protein (UniProt P20809 22-199, limits assumed)
# T2 construct: also called IL-11 recombinant protein with Fc tag; not shown: Fc tag
# T2 sequence (looked up): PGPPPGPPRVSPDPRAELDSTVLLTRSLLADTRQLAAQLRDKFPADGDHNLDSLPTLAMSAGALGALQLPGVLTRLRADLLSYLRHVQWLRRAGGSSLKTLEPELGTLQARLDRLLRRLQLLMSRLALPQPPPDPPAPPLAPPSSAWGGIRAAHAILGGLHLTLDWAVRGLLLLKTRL
# T3: recombinant human protein antigen hu-IL-11-His tag (human, UniProt P20809 22-199)
# T3 construct: Expressed in CHO, Ni column and Superdex75; not shown: His tag
# T3 sequence (looked up): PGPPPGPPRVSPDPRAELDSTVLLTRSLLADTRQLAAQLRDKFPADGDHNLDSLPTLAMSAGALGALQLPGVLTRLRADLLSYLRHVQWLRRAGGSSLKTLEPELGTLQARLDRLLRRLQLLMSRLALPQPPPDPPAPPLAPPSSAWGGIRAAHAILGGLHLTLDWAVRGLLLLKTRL
# T4: recombinant IL-27 (R&D systems, 2526-IL-010) (UniProt Q8NEV9 29-243; Q14213 21-229)
# T4 sequence (looked up) 1: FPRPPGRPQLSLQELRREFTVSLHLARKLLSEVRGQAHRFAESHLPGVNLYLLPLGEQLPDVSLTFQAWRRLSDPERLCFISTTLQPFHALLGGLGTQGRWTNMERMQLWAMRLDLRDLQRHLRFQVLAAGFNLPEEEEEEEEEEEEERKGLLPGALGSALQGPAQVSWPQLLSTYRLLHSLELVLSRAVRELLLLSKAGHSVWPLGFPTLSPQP
# T4 sequence (looked up) 2: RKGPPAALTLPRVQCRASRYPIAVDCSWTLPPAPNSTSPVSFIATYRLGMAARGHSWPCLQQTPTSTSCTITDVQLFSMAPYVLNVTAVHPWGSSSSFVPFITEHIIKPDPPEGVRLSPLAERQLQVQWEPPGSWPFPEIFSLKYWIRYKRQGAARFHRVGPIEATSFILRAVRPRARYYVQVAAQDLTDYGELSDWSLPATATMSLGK
# T5: recombinant CLC (R&D systems, 962-CL-050) (UniProt Q9UBD9 28-225)
# T5 sequence (looked up): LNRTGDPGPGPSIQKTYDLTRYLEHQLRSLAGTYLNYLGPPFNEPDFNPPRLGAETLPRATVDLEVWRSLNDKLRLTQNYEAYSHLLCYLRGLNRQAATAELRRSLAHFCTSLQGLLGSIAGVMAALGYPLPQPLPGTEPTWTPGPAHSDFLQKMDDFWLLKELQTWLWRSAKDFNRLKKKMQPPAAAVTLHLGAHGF
# T6: recombinant CT-1 (R&D systems, 612-CD-010) (UniProt Q16619 2-201, limits assumed)
# T6 sequence (looked up): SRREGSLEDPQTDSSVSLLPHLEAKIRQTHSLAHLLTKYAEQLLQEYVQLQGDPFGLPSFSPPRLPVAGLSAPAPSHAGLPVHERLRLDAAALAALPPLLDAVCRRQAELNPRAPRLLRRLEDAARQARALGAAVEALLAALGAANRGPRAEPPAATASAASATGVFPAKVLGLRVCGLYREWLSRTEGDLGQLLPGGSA
# T7: recombinant CNTF (R&D systems, 257-NT-010) (UniProt P26441 2-200)
# T7 sequence (looked up): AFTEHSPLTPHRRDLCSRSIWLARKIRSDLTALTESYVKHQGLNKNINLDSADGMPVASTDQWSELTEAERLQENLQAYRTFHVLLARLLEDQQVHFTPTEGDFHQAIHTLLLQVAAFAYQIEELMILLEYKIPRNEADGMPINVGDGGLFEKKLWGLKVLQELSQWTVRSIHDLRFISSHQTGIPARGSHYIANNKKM
# Assays:
# [1] = target: T1, IL-11 protein; experiment: SPR (Biacore), IgG captured, IL-11 6.25-400 nM as analyte
# Experimental: (§1) The measure method included the steps of capturing the humanized antibody at a flow rate of 10 ul/min. […] Finally the chip was regenerated with 10 mM glycine buffer.
# [2] = target: T2, IL-11-Fc protein; experiment: flow competition: IL-11-Fc + antibody gradient on membrane-IL-11R CHO cells; 5-20E11-5F2 antibody
# From the text: The secondary antibody used in the detection was a secondary antibody conjugated with a FITC fluorophore (Goat-anti-Fc-FITC) (Abcam, ab98529).
# [3] = target: T3, recombinant human protein antigen …; experiment: BLI, IL-11 (His tag) on Ni-NTA sensor, antibody as analyte
# Experimental: Bio-Layer Interferometry (BLI) was used for binding affinity determination. […] The analytes were diluted in 7 concentration gradients, the binding time was 60 s and the dissociation time was 1000 s. The buffer was 20 mM PBS, 0.15M NaCl, 0.1% BSA, 0.05% Tween 20, pH 7.
# [4] = target: T4, recombinant IL-27 (R&D systems, …); experiment: ELISA, cytokine coated
# [5] = target: recombinant IL-6 (Sinobiological-10395-HNAE) (UniProt P05231 30-212); experiment: ELISA, cytokine coated
# [6] = target: T5, recombinant CLC (R&D systems, …); experiment: ELISA, cytokine coated
# [7] = target: T6, recombinant CT-1 (R&D systems, …); experiment: ELISA, cytokine coated
# [8] = target: T7, recombinant CNTF (R&D systems, …); experiment: ELISA, cytokine coated
# [9] = target: T1, IL-11 protein; experiment: SPR (Biacore), antibody captured, 400 nM IL-11 as analyte
# Experimental: as §1
binder,measurement,setting,value
"5-20E11-5F2 (antibody, human IgG1, kappa, V domains shown, also called 5-20E11-5F2 antibody; 5-20E11-5F2 mAb) VH: QVQLQQSGAELVRPGTSAKISCKASDYTFTNYWLGWLKQRPGHGLEWIGHIYPGGGYTNYNEKFKGKATLTADTSSSTAYMQLSSLTSEDSAVYFCARVRSGNDALDFWGQGTSVTVSS VL: not shown",Kd,[1],6.41 nM
same,koff,[1],0.000433 s⁻¹
same,kon,[1],67600 M⁻¹ s⁻¹
same,IC50,[2],~21 mg/L
same,Kd,[3],0.069 nM
same,koff,[3],1.21e-05 s⁻¹
same,kon,[3],175000 M⁻¹ s⁻¹
same,binding result,[4],no binding
same,binding result,[5],no binding
same,binding result,[6],no binding
same,binding result,[7],no binding
same,binding result,[8],no binding
same,Kd,[9],2.09 nM
same,koff,[9],0.000122 s⁻¹
same,kon,[9],58400 M⁻¹ s⁻¹
